Measured values published in PMC12720418.

Target: VC1 tandem domains of the receptor for advanced glycation end-products (RAGE)
Test: ITC; 100 μM calprotectin (CP*) injected into 50 μM RAGE VC1 in the cell; 25°C; 50 mM HEPES pH 7.5, 150 mM NaCl, 10 mM CaCl2; average of three titrations, independent binding model

Kd: 380 nM
Substance: calprotectin heterodimer of S100A8 (C42S) and S100A9 (C3S) (from UniProt P05109 1-93; P06702 4-114) (complex)
